In one data set the target is T1, WUS-HD R94K (Arabidopsis thaliana, UniProt Q9SB92 34-103, R94K).
T1 sequence: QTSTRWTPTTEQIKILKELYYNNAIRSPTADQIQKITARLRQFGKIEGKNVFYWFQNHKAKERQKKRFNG
In words: EMSA; like wt; MST: 20 mM Tris-HCl pH 8.0, 75 mM NaCl, 10 mM MgCl2, 0.05% Tween-20, 20 C, 50 nM YFP-WUS; ITC: same without Tween, 20 C; EMSA: 10 mM Tris-HCl pH 8.0, 75 mM NaCl, 50 ug/ml poly(dI-dC), 1 mM EDTA, 1 mM DTT, 5% glycerol. As to conditions: protein: recombinant; tags: none after TEV cleavage; label: Cy5; blunt. On the technique in general: Mobility shift assays separate free from complexed probe on a gel.

Data set [1] has as its target T2, WUS-HD S36R (Arabidopsis thaliana, UniProt Q9SB92 34-103, S36R).
T2 sequence: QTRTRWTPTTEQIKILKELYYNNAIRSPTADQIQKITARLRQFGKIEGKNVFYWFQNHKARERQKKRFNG
In words: EMSA; predominantly monomer; MST: 20 mM Tris-HCl pH 8.0, 75 mM NaCl, 10 mM MgCl2, 0.05% Tween-20, 20 C, 50 nM YFP-WUS; ITC: same without Tween, 20 C; EMSA: 10 mM Tris-HCl pH 8.0, 75 mM NaCl, 50 ug/ml poly(dI-dC), 1 mM EDTA, 1 mM DTT, 5% glycerol. As to conditions: protein: recombinant; tags: none after TEV cleavage; label: Cy5; blunt.

The target in data set [2] is T3, WUS-HD T35R (Arabidopsis thaliana, UniProt Q9SB92 34-103, T35R).
T3 sequence: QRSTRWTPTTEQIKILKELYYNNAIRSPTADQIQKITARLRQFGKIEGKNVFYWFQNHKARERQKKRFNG
Described as above. Conditions: protein: recombinant; tags: none after TEV cleavage; label: Cy5; blunt.

The next data set has as its target T4, MBP-WUS-FL (Arabidopsis thaliana, UniProt Q9SB92 1-292).
T4 sequence: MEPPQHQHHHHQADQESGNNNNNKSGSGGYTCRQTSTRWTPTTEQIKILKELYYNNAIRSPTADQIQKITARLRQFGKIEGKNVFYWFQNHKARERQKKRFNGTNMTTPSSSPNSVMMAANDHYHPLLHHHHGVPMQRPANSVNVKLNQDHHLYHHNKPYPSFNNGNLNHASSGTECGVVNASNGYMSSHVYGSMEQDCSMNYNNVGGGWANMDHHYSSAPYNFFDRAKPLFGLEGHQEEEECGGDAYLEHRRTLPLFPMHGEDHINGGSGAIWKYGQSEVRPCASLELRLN
Kind of data set: EMSA; MST: 20 mM Tris-HCl pH 8.0, 75 mM NaCl, 10 mM MgCl2, 0.05% Tween-20, 20 C, 50 nM YFP-WUS; ITC: same without Tween, 20 C; EMSA: 10 mM Tris-HCl pH 8.0, 75 mM NaCl, 50 ug/ml poly(dI-dC), 1 mM EDTA, 1 mM DTT, 5% glycerol. As to conditions: protein: recombinant; tags: N-terminal His6-MBP; chain copies: 2; label: Cy5; blunt.

Another data set deals with T5, WUS-HD RRK (Arabidopsis thaliana, UniProt Q9SB92 34-103, T35R;S36R;R94K).
T5 sequence: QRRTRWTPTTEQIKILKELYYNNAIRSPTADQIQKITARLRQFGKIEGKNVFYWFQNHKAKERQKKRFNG
In words: EMSA; similar to T35R and S36R; MST: 20 mM Tris-HCl pH 8.0, 75 mM NaCl, 10 mM MgCl2, 0.05% Tween-20, 20 C, 50 nM YFP-WUS; ITC: same without Tween, 20 C; EMSA: 10 mM Tris-HCl pH 8.0, 75 mM NaCl, 50 ug/ml poly(dI-dC), 1 mM EDTA, 1 mM DTT, 5% glycerol. Conditions: protein: recombinant; tags: none after TEV cleavage; label: Cy5; blunt.

Another data set has as its target T6, WUS-HD F101A (Arabidopsis thaliana, UniProt Q9SB92 34-103, F101A).
T6 sequence: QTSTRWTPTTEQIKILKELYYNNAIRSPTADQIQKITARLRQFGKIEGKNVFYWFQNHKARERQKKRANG
Kind of data set: EMSA; predominantly monomer; probe called 2xTGAA; MST: 20 mM Tris-HCl pH 8.0, 75 mM NaCl, 10 mM MgCl2, 0.05% Tween-20, 20 C, 50 nM YFP-WUS; ITC: same without Tween, 20 C; EMSA: 10 mM Tris-HCl pH 8.0, 75 mM NaCl, 50 ug/ml poly(dI-dC), 1 mM EDTA, 1 mM DTT, 5% glycerol. Conditions: protein: recombinant; tags: none after TEV cleavage; label: Cy5; blunt.

Data set [3] has as its target T2, WUS-HD S36R. In words: EMSA; MST: 20 mM Tris-HCl pH 8.0, 75 mM NaCl, 10 mM MgCl2, 0.05% Tween-20, 20 C, 50 nM YFP-WUS; ITC: same without Tween, 20 C; EMSA: 10 mM Tris-HCl pH 8.0, 75 mM NaCl, 50 ug/ml poly(dI-dC), 1 mM EDTA, 1 mM DTT, 5% glycerol. As to conditions: protein: recombinant; tags: none after TEV cleavage; label: Cy5; blunt.
For data set [4], the target named is T3, WUS-HD T35R. The description is as above. As to conditions: protein: recombinant; tags: none after TEV cleavage; label: Cy5; blunt.

The Kd is the equilibrium constant for the complex coming apart.

B1: f_TAAT (dsDNA)
DNA 1: CAATGTGTTAATGGGTTGTT
DNA 2: AACAACCCATTAACACATTG
Regarding B1, the binding result in the data set with WUS-HD R94K, in the data set with WUS-HD S36R [1], with WUS-HD T35R [2] and with WUS-HD RRK was “binds” in each case. For the same molecule, the Kd in the data set with MBP-WUS-FL turned out to be 3.15 ± 0.26 µM.

B2: f_TGAA (dsDNA)
DNA 1: CATCGTCGTTCATTCAATGGG
DNA 2: CCCATTGAATGAACGACGATG
In the case of B2, the binding result with WUS-HD F101A, in the data set with WUS-HD S36R [3] and with WUS-HD T35R [4] was “binds” in each case. Also, the Kd in the data set with MBP-WUS-FL came to 0.36 ± 0.06 µM.

(Values after article PMC7203112, “Structural basis for the complex DNA binding behavior of the plant stem cell regulator WUSCHEL”.)
